Data published in patent US20230090502.

Target: Uncleaved SARS-CoV-2 3CLpro (N-terminal 6xHIS-tag followed by TEV-protease cleavage site)

B1: TEV-protease (New England Biolabs, includes a HIS-tag) (protein)
chain: GESLFKGPRDYNPISSTICHLTNESDGHTTSLYGIGFGPFIITNKHLFRRNNGTLLVQSLHGVFKVKNTTTLQQHLIDGRDMIIIRMPKDFPPFPQKLKFREPQREERICLVTTNFQTKSMSSMVSDTSCTFPSSDGIFWKHWIQTKDGQCGSPLVSTRDGFIVGIHSASNFTNTNNYFTSVPKNFMELLTNQEAQQWVSGWRLNADSVLWGGHKVFMSKPEEPFQPVKEATQLMNELVYSQ
cleavage of the HIS-tag, SDS-PAGE: Cleavage of the 3CLpro was successful
